Laboratory results as given in article PMC5871715 (2018).

B1: full-length human Draxin AVEXIS prey, wild type [human] / human Netrin-1 WT bait protein (VI+V), AVEXIS [human] (parent complex)
chain 1: GALAPGTPARNLPENHIDLPGPALWTPQASHHRRRGPGKKEWGPGLPSQAQDGAVVTATRQASRLPEAEGLLPEQSPAGLLQDKDLLLGLALPYPEKENRPPGWERTRKRSREHKRRRDRLRLHQGRALVRGPSSLMKKAELSEAQVLDAAMEESSTSLAPTMFFLTTFEAAPATEESLILPVTSLRPQQAQPRSDGEVMPTLDMALFDWTDYEDLKPDGWPSAKKKEKHRGKLSSDGNETSPAEGEPCDHHQDCLPGTCCDLREHLCTPHNRGLNNKCFDDCMCVEGLRCYAKFHRNRRVTRRKGRCVEPETANGDQGSFINV
chain 2: not shown

Variants of: B1
Test: AVEXIS; average of three repeats; read off a plot

| Variant | response [A486 nm] |
| --- | --- |
| chain 1 L203P | ~0.005 |
| chain 1 L203A | ~0.004 |

The next lines start with the values.

| response [A486 nm] | Variant |
| --- | --- |
| ~0.055 | chain 1 F208A |
| ~0.021 | chain 1 F208R |
| ~0.037 | chain 1 F208P |
| ~0.004 | chain 1 L203R |
